The data set concerns the molecule itself. The data set can be described thus: thioflavin T (ThT) fluorescence; 200 µM peptide in 100 mM ammonium acetate buffer pH 7, 37 °C in a thermomixer, read at 24 h and 48 h; with and without Pluronic F127 0.01% and Dox; ThT 50 µM in 20 mM Tris pH 8, 440/482 nm.

B1: Receptor-interacting protein RIP 3 peptide NIYNCSGVQVGD (peptide)
peptide: NIYNCSGVQVGD
notes: The amyloids were formed from the peptide alone and also with Pluronic F127 (0.01% w/v) and/or Doxorubicin; also called 12-amino-acid peptide from the amyloidogenic region of RIP3; source: synthetic peptide, custom-synthesized from Genscript
For B1, the binding result is given as “binds”.

Source of the values: article PMC11206591, “Novel Ultrasound-Responsive Amyloid Formulation” (Pharmaceuticals, 2024).
